Among the data in paper PMC6534611 are stoichiometry N values, retold here.

The test concerns the target Ptch1 variant △893-899/T903A/K904A/Q905A/N1000Q (human) (UniProt Q13635). Description: not stated; Ptch1 variant alone or in complex with ShhNp; Supplementary Fig. 8c.

As usually defined, the stoichiometry N is the number of molecules, sites or subunits per partner or assembly. For “Ptch1 variant △893-899/T903A/K904A/Q905A/N1000Q (from UniProt Q13635 1-1305) (receptor)”, the stoichiometry N was found to be 4.
